{"source": "paper PMC3458533", "test_in_all_cases": "filter binding", "key": {"R.MwoI D110A": {"target": "T1, R.MwoI D110A (Methanothermobacter wolfeii (DSMZ), UniProt O59646 1-363, D110A)", "T1 sequence": "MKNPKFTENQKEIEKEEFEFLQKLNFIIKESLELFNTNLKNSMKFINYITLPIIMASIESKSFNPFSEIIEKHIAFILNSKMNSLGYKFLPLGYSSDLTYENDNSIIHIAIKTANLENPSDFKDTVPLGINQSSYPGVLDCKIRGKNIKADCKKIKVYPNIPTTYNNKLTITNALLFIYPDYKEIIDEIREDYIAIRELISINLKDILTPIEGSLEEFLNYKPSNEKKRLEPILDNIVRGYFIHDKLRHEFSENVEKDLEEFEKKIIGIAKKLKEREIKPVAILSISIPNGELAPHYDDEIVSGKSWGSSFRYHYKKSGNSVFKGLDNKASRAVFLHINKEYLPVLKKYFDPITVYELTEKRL"}, "R.MwoI A330R": {"target": "T2, R.MwoI A330R (Methanothermobacter wolfeii (DSMZ), UniProt O59646 1-363, A330R)", "T2 sequence": "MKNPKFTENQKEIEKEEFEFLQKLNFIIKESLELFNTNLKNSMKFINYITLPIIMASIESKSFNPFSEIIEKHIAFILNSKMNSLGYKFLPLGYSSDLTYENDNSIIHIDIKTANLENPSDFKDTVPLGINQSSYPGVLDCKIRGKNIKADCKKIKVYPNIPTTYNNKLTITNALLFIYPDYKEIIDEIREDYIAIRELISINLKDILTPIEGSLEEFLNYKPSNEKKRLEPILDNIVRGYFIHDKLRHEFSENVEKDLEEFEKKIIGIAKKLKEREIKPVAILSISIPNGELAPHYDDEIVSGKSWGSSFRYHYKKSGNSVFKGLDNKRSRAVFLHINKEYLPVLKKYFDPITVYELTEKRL"}, "R.MwoI S310A": {"target": "T3, R.MwoI S310A (Methanothermobacter wolfeii (DSMZ), UniProt O59646 1-363, S310A)", "T3 sequence": "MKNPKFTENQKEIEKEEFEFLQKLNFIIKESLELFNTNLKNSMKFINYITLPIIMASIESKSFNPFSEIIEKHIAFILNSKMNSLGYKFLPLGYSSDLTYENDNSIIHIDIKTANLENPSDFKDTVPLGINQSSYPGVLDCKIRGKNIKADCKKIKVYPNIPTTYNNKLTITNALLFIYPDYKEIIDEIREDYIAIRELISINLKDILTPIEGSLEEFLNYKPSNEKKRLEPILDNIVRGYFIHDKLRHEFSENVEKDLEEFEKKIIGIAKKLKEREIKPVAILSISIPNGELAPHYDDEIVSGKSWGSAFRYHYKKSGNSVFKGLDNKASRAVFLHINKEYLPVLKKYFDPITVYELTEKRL"}, "R.MwoI K112A": {"target": "T4, R.MwoI K112A (Methanothermobacter wolfeii (DSMZ), UniProt O59646 1-363, K112A)", "T4 sequence": "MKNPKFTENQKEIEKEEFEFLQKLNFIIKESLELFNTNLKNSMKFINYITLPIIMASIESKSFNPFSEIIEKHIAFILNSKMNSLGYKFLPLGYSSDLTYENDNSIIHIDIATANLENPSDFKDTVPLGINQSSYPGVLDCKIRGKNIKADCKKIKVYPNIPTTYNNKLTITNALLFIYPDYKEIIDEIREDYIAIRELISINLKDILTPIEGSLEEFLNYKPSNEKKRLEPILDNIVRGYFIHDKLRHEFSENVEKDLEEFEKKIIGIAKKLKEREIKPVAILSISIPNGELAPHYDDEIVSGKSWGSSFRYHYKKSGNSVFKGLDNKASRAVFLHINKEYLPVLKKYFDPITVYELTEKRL"}, "R.MwoI T125R": {"target": "T5, R.MwoI T125R (Methanothermobacter wolfeii (DSMZ), UniProt O59646 1-363, T125R)", "T5 sequence": "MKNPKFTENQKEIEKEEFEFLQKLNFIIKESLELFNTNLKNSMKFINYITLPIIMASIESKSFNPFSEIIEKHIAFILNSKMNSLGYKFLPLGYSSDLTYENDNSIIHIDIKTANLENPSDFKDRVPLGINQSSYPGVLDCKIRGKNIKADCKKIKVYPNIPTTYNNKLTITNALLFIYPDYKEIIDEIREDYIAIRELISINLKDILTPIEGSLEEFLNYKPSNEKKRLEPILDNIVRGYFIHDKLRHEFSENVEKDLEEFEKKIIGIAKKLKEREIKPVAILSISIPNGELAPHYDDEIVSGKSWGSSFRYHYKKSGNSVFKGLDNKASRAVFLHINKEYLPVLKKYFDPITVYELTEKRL"}, "R.MwoI E68A": {"target": "T6, R.MwoI E68A (Methanothermobacter wolfeii (DSMZ), UniProt O59646 1-363, E68A)", "T6 sequence": "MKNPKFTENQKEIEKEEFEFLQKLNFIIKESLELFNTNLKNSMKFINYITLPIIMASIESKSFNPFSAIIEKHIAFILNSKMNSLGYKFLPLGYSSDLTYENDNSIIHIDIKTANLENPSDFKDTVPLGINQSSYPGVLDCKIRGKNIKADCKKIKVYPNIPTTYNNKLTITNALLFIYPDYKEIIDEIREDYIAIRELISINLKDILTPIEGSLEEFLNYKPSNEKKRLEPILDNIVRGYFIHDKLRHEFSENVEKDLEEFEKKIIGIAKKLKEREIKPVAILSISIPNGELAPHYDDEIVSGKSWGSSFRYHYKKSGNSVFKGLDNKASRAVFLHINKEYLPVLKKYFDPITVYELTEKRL"}, "R.MwoI S310D": {"target": "T7, R.MwoI S310D (Methanothermobacter wolfeii (DSMZ), UniProt O59646 1-363, S310D)", "T7 sequence": "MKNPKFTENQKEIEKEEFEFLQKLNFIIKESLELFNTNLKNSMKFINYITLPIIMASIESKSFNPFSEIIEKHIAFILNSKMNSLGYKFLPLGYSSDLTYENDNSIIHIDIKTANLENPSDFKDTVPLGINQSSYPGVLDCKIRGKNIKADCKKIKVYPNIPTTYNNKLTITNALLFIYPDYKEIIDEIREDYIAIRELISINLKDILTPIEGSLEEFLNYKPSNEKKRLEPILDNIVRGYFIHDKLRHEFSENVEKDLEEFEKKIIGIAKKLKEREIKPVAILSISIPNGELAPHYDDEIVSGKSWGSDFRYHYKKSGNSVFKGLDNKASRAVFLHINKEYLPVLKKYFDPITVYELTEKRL"}, "R.MwoI S310K": {"target": "T8, R.MwoI S310K (Methanothermobacter wolfeii (DSMZ), UniProt O59646 1-363, S310K)", "T8 sequence": "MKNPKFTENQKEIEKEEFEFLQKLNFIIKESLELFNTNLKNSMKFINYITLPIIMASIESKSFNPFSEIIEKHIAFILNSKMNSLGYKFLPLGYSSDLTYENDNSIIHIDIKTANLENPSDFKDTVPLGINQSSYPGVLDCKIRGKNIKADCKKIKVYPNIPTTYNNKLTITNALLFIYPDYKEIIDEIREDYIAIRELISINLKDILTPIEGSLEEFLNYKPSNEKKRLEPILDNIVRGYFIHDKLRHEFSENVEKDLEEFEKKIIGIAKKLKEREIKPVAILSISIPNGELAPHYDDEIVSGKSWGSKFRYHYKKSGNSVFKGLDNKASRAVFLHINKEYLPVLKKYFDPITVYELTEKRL"}}, "data": [{"binder": "MwoI target oligonucleotide (dsDNA) DNA 1: CGGCTGTAGTCGCAC DNA 2: GTGCGACTACAGCCG", "values": [{"measurement": "binding signal", "setting": "R.MwoI D110A", "value": "25 % of wt"}, {"measurement": "binding signal", "setting": "R.MwoI A330R", "value": "> 350 % of wt"}, {"measurement": "binding signal", "setting": "R.MwoI S310A", "value": "53 % of wt"}, {"measurement": "binding signal", "setting": "R.MwoI K112A", "value": "114 % of wt"}, {"measurement": "binding signal", "setting": "R.MwoI T125R", "value": "42 % of wt"}, {"measurement": "binding signal", "setting": "R.MwoI E68A", "value": "> 350 % of wt"}]}, {"binder": "G/C (GCGN5CGC) (dsDNA) DNA 1: GACAGTGCGATCTCCGCGACAGT DNA 2: ACTGTCGCGGAGATCGCACTGTC", "values": [{"measurement": "binding result", "setting": "R.MwoI S310D", "value": "binds"}]}, {"binder": "C/G (GCCN5GGC) (dsDNA) DNA 1: GACAGTGCCATCTCGGCGACAGT DNA 2: ACTGTCGCCGAGATGGCACTGTC", "values": [{"measurement": "binding result", "setting": "R.MwoI S310K", "value": "binds"}]}, {"binder": "A/T (GCAN5TGC) (dsDNA) DNA 1: GACAGTGCAATCTCTGCGACAGT DNA 2: ACTGTCGCAGAGATTGCACTGTC", "values": [{"measurement": "binding result", "setting": "R.MwoI S310D", "value": "binds"}]}]}
